Measured values from patent publication US11325966.

Columns and labels:
Assay in all cases: cell-based or functional assay
JR-CSF N295A (HIV-1) = JR-CSF N295A (HIV-1) (UniProt P20871)
[1] = target: BG505 (T332N) N339A (HIV-1)
JR-CSF N301A (HIV-1) = JR-CSF N301A (HIV-1) (UniProt P20871)
[2] = target: HIV-1 envelope (Env) of pseudovirus Ce2060_G9 (HIV-1)
[3] = target: HIV-1 envelope (Env) of pseudovirus CNE19 (HIV-1)
[4] = target: HIV-1 envelope (Env) of pseudovirus 3301.v1.c24 (HIV-1)
[5] = target: HIV-1 envelope (Env) of pseudovirus Ce1172_H1 (HIV-1)
[6] = target: HIV-1 envelope (Env) of pseudovirus CAP45.2.00.G3 (HIV-1)
[7] = target: HIV-1 envelope (Env) of pseudovirus CNE58 (HIV-1)
[8] = target: HIV-1 envelope (Env) of pseudovirus R1166.c01 (HIV-1)
[9] = target: HIV-1 envelope (Env) of pseudovirus 620345.c01 (HIV-1)
[10] = target: HIV-1 envelope (Env) of pseudovirus ZM53M.PB12 (HIV-1)
[11] = target: HIV-1 envelope (Env) of pseudovirus YU2_N276D (HIV-1) (UniProt P35961)
[12] = target: HIV-1 envelope (Env) of pseudovirus 6244_13_B5_4576 (HIV-1)
[13] = target: HIV-1 envelope (Env) of pseudovirus BJOX009000.02.4 (HIV-1)
[14] = target: HIV-1 envelope (Env) of pseudovirus A07412M1.vrc12 (HIV-1)
[15] = target: HIV-1 envelope (Env) of pseudovirus Du172.17 (HIV-1)
[16] = target: HIV-1 envelope (Env) of pseudovirus Ce704809221_1B3 (HIV-1)
[17] = target: HIV-1 envelope (Env) of pseudovirus 6041.v3.c23 (HIV-1)
[18] = target: HIV-1 envelope (Env) of pseudovirus WITO4160.33 (HIV-1)
[19] = target: HIV-1 envelope (Env) of pseudovirus ZM247v1 (Rev-) (HIV-1)
[20] = target: HIV-1 envelope (Env) of pseudovirus ZM214M.PL15 (HIV-1)
[21] = target: HIV-1 envelope (Env) of pseudovirus CNE30 (HIV-1)
[22] = target: HIV-1 envelope (Env) of pseudovirus MS208.A1 (HIV-1)
[23] = target: HIV-1 envelope (Env) of pseudovirus 3365.v2.c2 (HIV-1)
[24] = target: HIV-1 envelope (Env) of pseudovirus 1056_10_TA11_1826 (HIV-1)
[25] = target: HIV-1 envelope (Env) of pseudovirus C1080.c03 (HIV-1)
[26] = target: HIV-1 envelope (Env) of pseudovirus Du422.1 (HIV-1)
[27] = target: HIV-1 envelope (Env) of pseudovirus AC10.0.29 (HIV-1)
[28] = target: HIV-1 envelope (Env) of pseudovirus P0402_c2_11 (HIV-1)
[29] = target: HIV-1 envelope (Env) of pseudovirus 62357_14_D3_4589 (HIV-1)
[30] = target: HIV-1 envelope (Env) of pseudovirus 1006_11_C3_1601 (HIV-1)
[31] = target: HIV-1 envelope (Env) of pseudovirus 3103.v3.c10 (HIV-1)
[32] = target: HIV-1 envelope (Env) of pseudovirus 211-9 (HIV-1)
[33] = target: HIV-1 envelope (Env) of pseudovirus Q23.17 (HIV-1)
[34] = target: HIV-1 envelope (Env) of pseudovirus 263-8 (HIV-1)
[35] = target: HIV-1 YU2 Env N160K, on pseudovirus (HIV-1) (UniProt P35961)
[36] = target: HIV-1 YU2 Env N276D, on pseudovirus (HIV-1) (UniProt P35961)

Substance: 354BG8 (antibody)
- IC50 in TZM-bl assay (JR-CSF N295A (HIV-1)): 0.006 µg/mL
- IC50 in TZM-bl assay [1]: 0.007 µg/mL
- IC50 in TZM-bl assay (JR-CSF N301A (HIV-1)): 0.006 µg/mL

Substance: BG1 (antibody)
- IC50 in TZM-bl assay [2]: > 30 µg/mL
- IC80 in TZM-bl assay [2]: > 30 µg/mL
- IC50 in TZM-bl assay [3]: 1.27 µg/mL
- IC80 in TZM-bl assay [3]: 10.9 µg/mL
- IC50 in TZM-bl assay [4]: > 30 µg/mL
- IC80 in TZM-bl assay [4]: > 30 µg/mL
- IC50 in TZM-bl assay [5]: > 30 µg/mL
- IC80 in TZM-bl assay [5]: > 30 µg/mL
- IC50 in TZM-bl assay [6]: 0.149 µg/mL
- IC80 in TZM-bl assay [6]: 0.383 µg/mL
- IC50 in TZM-bl assay [7]: > 30 µg/mL
- IC80 in TZM-bl assay [7]: > 30 µg/mL
- IC50 in TZM-bl assay [8]: > 30 µg/mL
- IC80 in TZM-bl assay [8]: > 30 µg/mL
- IC50 in TZM-bl assay [9]: 0.626 µg/mL
- IC80 in TZM-bl assay [9]: 4.23 µg/mL
- IC50 in TZM-bl assay [10]: > 30 µg/mL
- IC80 in TZM-bl assay [10]: > 30 µg/mL
- IC50 in TZM-bl assay [11]: 18.8 µg/mL
- IC80 in TZM-bl assay [11]: > 30 µg/mL
- IC50 in TZM-bl assay [12]: > 30 µg/mL
- IC80 in TZM-bl assay [12]: > 30 µg/mL
- IC50 in TZM-bl assay [13]: > 30 µg/mL
- IC80 in TZM-bl assay [13]: > 30 µg/mL
- IC50 in TZM-bl assay [14]: > 30 µg/mL
- IC80 in TZM-bl assay [14]: > 30 µg/mL
- IC50 in TZM-bl assay [15]: > 30 µg/mL
- IC80 in TZM-bl assay [15]: > 30 µg/mL
- IC50 in TZM-bl assay [16]: 3.25 µg/mL
- IC80 in TZM-bl assay [16]: 18.5 µg/mL
- IC50 in TZM-bl assay [17]: 6.75 µg/mL
- IC80 in TZM-bl assay [17]: 16.6 µg/mL
- IC50 in TZM-bl assay [18]: 0.002 µg/mL
- IC80 in TZM-bl assay [18]: 0.014 µg/mL
- IC50 in TZM-bl assay [19]: > 30 µg/mL
- IC80 in TZM-bl assay [19]: > 30 µg/mL
- IC50 in TZM-bl assay [20]: > 30 µg/mL
- IC80 in TZM-bl assay [20]: > 30 µg/mL
- IC50 in TZM-bl assay [21]: > 30 µg/mL
- IC80 in TZM-bl assay [21]: > 30 µg/mL
- IC50 in TZM-bl assay [22]: 1.48 µg/mL
- IC80 in TZM-bl assay [22]: 6.54 µg/mL
- IC50 in TZM-bl assay [23]: 1.16 µg/mL
- IC80 in TZM-bl assay [23]: 4.27 µg/mL
- IC50 in TZM-bl assay [24]: 5.43 µg/mL
- IC80 in TZM-bl assay [24]: 29.9 µg/mL
- IC50 in TZM-bl assay [25]: 0.002 µg/mL
- IC80 in TZM-bl assay [25]: 0.005 µg/mL
- IC50 in TZM-bl assay [26]: 1.8 µg/mL
- IC80 in TZM-bl assay [26]: 13.7 µg/mL
- IC50 in TZM-bl assay [27]: 0.012 µg/mL
- IC80 in TZM-bl assay [27]: 0.043 µg/mL
- IC50 in TZM-bl assay [28]: > 30 µg/mL
- IC80 in TZM-bl assay [28]: > 30 µg/mL
- IC50 in TZM-bl assay [29]: 0.638 µg/mL
- IC80 in TZM-bl assay [29]: 2.89 µg/mL
- IC50 in TZM-bl assay [30]: > 30 µg/mL
- IC80 in TZM-bl assay [30]: > 30 µg/mL
- IC50 in TZM-bl assay [31]: > 30 µg/mL
- IC80 in TZM-bl assay [31]: > 30 µg/mL
- IC50 in TZM-bl assay [32]: 2.85 µg/mL
- IC80 in TZM-bl assay [32]: 12.9 µg/mL
- IC50 in TZM-bl assay [33]: 0.008 µg/mL
- IC80 in TZM-bl assay [33]: 0.016 µg/mL
- IC50 in TZM-bl assay [34]: > 30 µg/mL
- IC80 in TZM-bl assay [34]: > 30 µg/mL

Substance: BG18 IgG (354BG18) (antibody)
- IC50 in TZM-bl assay [35]: 0.028 µg/mL
- IC80 in TZM-bl assay [35]: 0.15 µg/mL
- IC50 in TZM-bl assay [36]: 0.012 µg/mL
- IC80 in TZM-bl assay [36]: 0.036 µg/mL
